Reference: the supplement of paper PMC5998384

Assays:
[1] = system: HeLa Kyoto; experiment: solubility change mitosis vs G1/S (difference of NP-40 vs SDS log2 ratios) (log2 ratio difference); higher = more soluble in mitosis
[2] = system: HeLa Kyoto; experiment: melting temperature (median over replicates), in situ; higher = more thermally stable
[3] = system: HeLa Kyoto; experiment: thermal stability score vs G1/S (z-score of summed log2 fold changes over temperatures); higher = more thermally stable than in G1/S
[4] = system: HeLa Kyoto; experiment: solubility in G1/S (NP-40 vs SDS abundance) (log2 ratio); higher = more soluble; settings: cell cycle stage: G1/S
[5] = cell cycle stage: early G1 (4.5 h after nocodazole release)
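Wherever melting temperature (median over replicates), in situ is given: HeLa Kyoto cells synchronized by double thymidine or nocodazole block, proteins quantified by TMT10plex mass spectrometry, three independent biological replicates.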
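Wherever solubility change mitosis vs G1/S (difference of NP-40 vs SDS log2 ratios) is given: synchronized HeLa Kyoto cells (double thymidine block for G1/S, nocodazole release for mitosis), protein amounts in NP-40 versus SDS lysates quantified by mass spectrometry, three biological replicates.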
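Wherever solubility in G1/S (NP-40 vs SDS abundance) is given: HeLa Kyoto cells arrested at G1/S by double thymidine block, proteins quantified by TMT10plex mass spectrometry in mild NP-40 versus SDS extracts, three biological replicates.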
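Wherever thermal stability score vs G1/S (z-score of summed log2 fold changes over temperatures) is given: synchronized HeLa Kyoto cells, proteins quantified by TMT10plex mass spectrometry, three biological replicates, mitosis taken 0.5 h after nocodazole release, G1/S directly after double thymidine block.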

Sequence: MSPEEWTYLVVLLISIPIGFLFKKAGPGLKRWGAAAVGLGLTLFTCGPHTLHSLVTILGTWALIQAQPCSCHALALAWTFSYLLFFRALSLLGLPTPTPFTNAVQLLLTLKLVSLASEVQDLHLAQRKEMASGFSKGPTLGLLPDVPSLMETLSYSYCYVGIMTGPFFRYRTYLDWLEQPFPGAVPSLRPLLRRAWPAPLFGLLFLLSSHLFPLEAVREDAFYARPLPARLFYMIPVFFAFRMRFYVAWIAAECGCIAAGFGAYPVAAKARAGGGPTLQCPPPSSPEKAASLEYDYETIRNIDCYSTDFCVRVRDGMRYWNMTVQWWLAQYIYKSAPARSYVLRSAWTMLLSAYWHGLHPGYYLSFLTIPLCLAAEGRLESALRGRLSPGGQKAWDWVHWFLKMRAYDYMCMGFVLLSLADTLRYWASIYFCIHFLALAALGLGLALGGGSPSRRKAASQPTSLAPEKLREE [MBOAT7]
- solubility change mitosis (log2) [1]: 0.0131
- melting temperature ([2]; cell cycle stage: G1/S): 56.9 °C
- melting temperature ([2]; cell cycle stage: mitosis): 57 °C
- thermal stability score [3, 5]: -1.37
- thermal stability score ([3]; cell cycle stage: mitosis): -1.09
- solubility in G1/S (log2) [4]: -0.091

Sequence: MSPRRTLPRPLSLCLSLCLCLCLAAALGSAQSGSCRDKKNCKVVFSQQELRKRLTPLQYHVTQEKGTESAFEGEYTHHKDPGIYKCVVCGTPLFKSETKFDSGSGWPSFHDVINSEAITFTDDFSYGMHRVETSCSQCGAHLGHIFDDGPRPTGKRYCINSAALSFTPADSSGTAEGGSGVASPAQADKAEL [MSRB3]
- solubility change mitosis (log2) [1]: 0.0421
- melting temperature ([2]; cell cycle stage: G1/S): 55 °C
- melting temperature ([2]; cell cycle stage: mitosis): 53.6 °C
- thermal stability score [3, 5]: -0.168
- thermal stability score ([3]; cell cycle stage: mitosis): -0.886
- solubility in G1/S (log2) [4]: 0.116

Sequence: MSQGDSNPAAIPHAAEDIQGDDRWMSQHNRFVLDCKDKEPDVLFVGDSMVQLMQQYEIWRELFSPLHALNFGIGGDTTRHVLWRLKNGELENIKPKVIVVWVGTNNHENTAEEVAGGIEAIVQLINTRQPQAKIIVLGLLPRGEKPNPLRQKNAKVNQLLKVSLPKLANVQLLDTDGGFVHSDGAISCHDMFDFLHLTGGGYAKICKPLHELIMQLLEETPEEKQTTIA [PAFAH1B2]
- solubility change mitosis (log2) [1]: -0.079
- melting temperature ([2]; cell cycle stage: G1/S): 49.5 °C
- melting temperature ([2]; cell cycle stage: mitosis): 51 °C
- thermal stability score [3, 5]: -0.13
- thermal stability score ([3]; cell cycle stage: mitosis): -0.102
- solubility in G1/S (log2) [4]: 0.628

Sequence: MSQQGYVATPPYSQPQPGIGLSPPHYGHYGDPSHTASPTGMMKPAGPLGATATRGMLPPGPPPPGPHQFGQNGAHATGHPPQRFPGPPPVNNVASSHAPYQPSAQSSYPGPISTSSVTQLGSQLSAMQINSYGSGMAPPSQGPPGPLSATSLQTPPRPPQPSILQPGSQVLPPPPTTLNGPGASPLPLPMYRPDGLSGPPPPNAQYQPPPLPGQTLGAGYPPQQANSGPQMAGAQLSYPGGFPGGPAQMAGPPQPQKKLDPDSIPSPIQVIENDRASRGGQVYATNTRGQIPPLVTTDCMIQDQGNASPRFIRCTTYCFPCTSDMAKQAQIPLAAVIKPFATIPSNESPLYLVNHGESGPVRCNRCKAYMCPFMQFIEGGRRYQCGFCNCVNDVPPFYFQHLDHIGRRLDHYEKPELSLGSYEYVATLDYCRKSKPPNPPAFIFMIDVSYSNIKNGLVKLICEELKTMLEKIPKEEQEETSAIRVGFITYNKVLHFFNVKSNLAQPQMMVVTDVGEVFVPLLDGFLVNYQESQSVIHNLLDQIPDMFADSNENETVFAPVIQAGMEALKAADCPGKLFIFHSSLPTAEAPGKLKNRDDKKLVNTDKEKILFQPQTNVYDSLAKDCVAHGCSVTLFLFPSQYVDVASLGLVPQLTGGTLYKYNNFQMHLDRQQFLNDLRNDIEKKIGFDAIMRVRTSTGFRATDFFGGILMNNTTDVEMAAIDCDKAVTVEFKHDDKLSEDSGALIQCAVLYTTISGQRRLRIHNLGLNCSSQLADLYKSCETDALINFFAKSAFKAVLHQPLKVIREILVNQTAHMLACYRKNCASPSAASQLILPDSMKVLPVYMNCLLKNCVLLSRPEISTDERAYQRQLVMTMGVADSQLFFYPQLLPIHTLDVKSTMLPAAVRCSESRLSEEGIFLLANGLHMFLWLGVSSPPELIQGIFNVPSFAHINTDMTLLPEVGNPYSQQLRMIMGIIQQKRPYSMKLTIVKQREQPEMVFRQFLVEDKGLYGGSSYVDFLCCVHKEICQLLN [SEC24D]
- solubility change mitosis (log2) [1]: -0.132
- melting temperature ([2]; cell cycle stage: G1/S): 50.8 °C
- melting temperature ([2]; cell cycle stage: mitosis): 50.9 °C
- thermal stability score [3, 5]: 0.419
- thermal stability score ([3]; cell cycle stage: mitosis): 0.688
- solubility in G1/S (log2) [4]: 0.11

Sequence: MSQSKGKKRNPGLKIPKEAFEQPQTSSTPPRDLDSKACISIGNQNFEVKADDLEPIMELGRGAYGVVEKMRHVPSGQIMAVKRIRATVNSQEQKRLLMDLDISMRTVDCPFTVTFYGALFREGDVWICMELMDTSLDKFYKQVIDKGQTIPEDILGKIAVSIVKALEHLHSKLSVIHRDVKPSNVLINALGQVKMCDFGISGYLVDSVAKTIDAGCKPYMAPERINPELNQKGYSVKSDIWSLGITMIELAILRFPYDSWGTPFQQLKQVVEEPSPQLPADKFSAEFVDFTSQCLKKNSKERPTYPELMQHPFFTLHESKGTDVASFVKLILGD [MAP2K6]
- solubility change mitosis (log2) [1]: -0.158
- melting temperature ([2]; cell cycle stage: G1/S): 51.4 °C
- melting temperature ([2]; cell cycle stage: mitosis): 52.5 °C
- thermal stability score [3, 5]: 1.49
- thermal stability score ([3]; cell cycle stage: mitosis): 0.537
- solubility in G1/S (log2) [4]: 0.225

Sequence: MSQVKSSYSYDAPSDFINFSSLDDEGDTQNIDSWFEEKANLENKLLGKNGTGGLFQGKTPLRKANLQQAIVTPLKPVDNTYYKEAEKENLVEQSIPSNACSSLEVEAAISRKTPAQPQRRSLRLSAQKDLEQKEKHHVKMKAKRCATPVIIDEILPSKKMKVSNNKKKPEEEGSAHQDTAEKNASSPEKAKGRHTVPCMPPAKQKFLKSTEEQELEKSMKMQQEVVEMRKKNEEFKKLALAGIGQPVKKSVSQVTKSVDFHFRTDERIKQHPKNQEEYKEVNFTSELRKHPSSPARVTKGCTIVKPFNLSQGKKRTFDETVSTYVPLAQQVEDFHKRTPNRYHLRSKKDDINLLPSKSSVTKICRDPQTPVLQTKHRARAVTCKSTAELEAEELEKLQQYKFKARELDPRILEGGPILPKKPPVKPPTEPIGFDLEIEKRIQERESKKKTEDEHFEFHSRPCPTKILEDVVGVPEKKVLPITVPKSPAFALKNRIRMPTKEDEEEDEPVVIKAQPVPHYGVPFKPQIPEARTVEICPFSFDSRDKERQLQKEKKIKELQKGEVPKFKALPLPHFDTINLPEKKVKNVTQIEPFCLETDRRGALKAQTWKHQLEEELRQQKEAACFKARPNTVISQEPFVPKKEKKSVAEGLSGSLVQEPFQLATEKRAKERQELEKRMAEVEAQKAQQLEEARLQEEEQKKEELARLRRELVHKANPIRKYQGLEIKSSDQPLTVPVSPKFSTRFHC [TPX2]
- solubility change mitosis (log2) [1]: 0.425
- melting temperature ([2]; cell cycle stage: G1/S): 53.8 °C
- melting temperature ([2]; cell cycle stage: mitosis): 53.1 °C
- thermal stability score [3, 5]: -0.935
- thermal stability score ([3]; cell cycle stage: mitosis): -2.05
- solubility in G1/S (log2) [4]: -0.167

Sequence: MSQVLFHQLVPLQVKCKDCEERRVSIRMSIELQSVSNPVHRKDLVIRLTDDTDPFFLYNLVISEEDFQSLKFQQGLLVDFLAFPQKFIDLLQQCTQEHAKEIPRFLLQLVSPAAILDNSPAFLNVVETNPFKHLTHLSLKLLPGNDVEIKKFLAGCLKCSKEEKLSLMQSLDDATKQLDFTRKTLAEKKQELDKLRNEWASHTAALTNKHSQELTNEKEKALQAQVQYQQQHEQQKKDLEILHQQNIHQLQNRLSELEAANKDLTERKYKGDSTIRELKAKLSGVEEELQRTKQEVLSLRRENSTLDVECHEKEKHVNQLQTKVAVLEQEIKDKDQLVLRTKEAFDTIQEQKVVLEENGEKNQVQLGKLEATIKSLSAELLKANEIIKKLQGDLKTLMGKLKLKNTVTIQQEKLLAEKEEKLQKEQKELQDVGQSLRIKEQEVCKLQEQLEATVKKLEESKQLLKNNEKLITWLNKELNENQLVRKQDVLGPSTTPPAHSSSNTIRSGISPNLNVVDGRLTYPTCGIGYPVSSAFAFQNTFPHSISAKNTSHPGSGTKVQFNLQFTKPNASLGDVQSGATISMPCSTDKENGENVGLESKYLKKREDSIPLRGLSQNLFSNSDHQRDGTLGALHTSSKPTALPSASSAYFPGQLPNS [SASS6]
- solubility change mitosis (log2) [1]: -0.0259
- melting temperature ([2]; cell cycle stage: G1/S): 48.2 °C
- melting temperature ([2]; cell cycle stage: mitosis): 49.3 °C
- thermal stability score [3, 5]: 0.985
- thermal stability score ([3]; cell cycle stage: mitosis): 0.832
- solubility in G1/S (log2) [4]: 0.537

Sequence: MSRGPSSAVLPSALGSRKLGPRSLSCLSDLDGGVALEPRACRPPGSPGRAPPPTPAPSGCDPRLRPIILRRARSLPSSPERRQKAAGAPGAACRPGCSQKLRVRFADALGLELAQVKVFNAGDDPSVPLHVLSRLAINSDLCCSSQDLEFTLHCLVPDFPPPVEAADFGERLQRQLVCLERVTCSDLGISGTVRVCNVAFEKQVAVRYTFSGWRSTHEAVARWRGPAGPEGTEDVFTFGFPVPPFLLELGSRVHFAVRYQVAGAEYWDNNDHRDYSLTCRNHALHMPRGECEESWIHFI [PPP1R3D]
- solubility change mitosis (log2) [1]: -0.164
- melting temperature ([2]; cell cycle stage: G1/S): 51.7 °C
- melting temperature ([2]; cell cycle stage: mitosis): 50.8 °C
- thermal stability score [3, 5]: -0.613
- thermal stability score ([3]; cell cycle stage: mitosis): -0.713
- solubility in G1/S (log2) [4]: 0.0302

Sequence: MSRIEKMSILGVRSFGIEDKDKQIITFFSPLTILVGPNGAGKTTIIECLKYICTGDFPPGTKGNTFVHDPKVAQETDVRAQIRLQFRDVNGELIAVQRSMVCTQKSKKTEFKTLEGVITRTKHGEKVSLSSKCAEIDREMISSLGVSKAVLNNVIFCHQEDSNWPLSEGKALKQKFDEIFSATRYIKALETLRQVRQTQGQKVKEYQMELKYLKQYKEKACEIRDQITSKEAQLTSSKEIVKSYENELDPLKNRLKEIEHNLSKIMKLDNEIKALDSRKKQMEKDNSELEEKMEKVFQGTDEQLNDLYHNHQRTVREKERKLVDCHRELEKLNKESRLLNQEKSELLVEQGRLQLQADRHQEHIRARDSLIQSLATQLELDGFERGPFSERQIKNFHKLVRERQEGEAKTANQLMNDFAEKETLKQKQIDEIRDKKTGLGRIIELKSEILSKKQNELKNVKYELQQLEGSSDRILELDQELIKAERELSKAEKNSNVETLKMEVISLQNEKADLDRTLRKLDQEMEQLNHHTTTRTQMEMLTKDKADKDEQIRKIKSRHSDELTSLLGYFPNKKQLEDWLHSKSKEINQTRDRLAKLNKELASSEQNKNHINNELKRKEEQLSSYEDKLFDVCGSQDFESDLDRLKEEIEKSSKQRAMLAGATAVYSQFITQLTDENQSCCPVCQRVFQTEAELQEVISDLQSKLRLAPDKLKSTESELKKKEKRRDEMLGLVPMRQSIIDLKEKEIPELRNKLQNVNRDIQRLKNDIEEQETLLGTIMPEEESAKVCLTDVTIMERFQMELKDVERKIAQQAAKLQGIDLDRTVQQVNQEKQEKQHKLDTVSSKIELNRKLIQDQQEQIQHLKSTTNELKSEKLQISTNLQRRQQLEEQTVELSTEVQSLYREIKDAKEQVSPLETTLEKFQQEKEELINKKNTSNKIAQDKLNDIKEKVKNIHGYMKDIENYIQDGKDDYKKQKETELNKVIAQLSECEKHKEKINEDMRLMRQDIDTQKIQERWLQDNLTLRKRNEELKEVEEERKQHLKEMGQMQVLQMKSEHQKLEENIDNIKRNHNLALGRQKGYEEEIIHFKKELREPQFRDAEEKYREMMIVMRTTELVNKDLDIYYKTLDQAIMKFHSMKMEEINKIIRDLWRSTYRGQDIEYIEIRSDADENVSASDKRRNYNYRVVMLKGDTALDMRGRCSAGQKVLASLIIRLALAETFCLNCGIIALDEPTTNLDRENIESLAHALVEIIKSRSQQRNFQLLVITHDEDFVELLGRSEYVEKFYRIKKNIDQCSEIVKCSVSSLGFNVH [RAD50]
- solubility change mitosis (log2) [1]: -0.108
- melting temperature ([2]; cell cycle stage: G1/S): 48.8 °C
- melting temperature ([2]; cell cycle stage: mitosis): 49.7 °C
- thermal stability score [3, 5]: 2.17
- thermal stability score ([3]; cell cycle stage: mitosis): 3.45
- solubility in G1/S (log2) [4]: -0.129
